These results are taken from patent US20260258115A1.

To fix the notation:
B1: ADI-41296 (antibody, V domains shown)
VH: EVQLVESGVEVKKPGESLKISCRGSGYTFYNYWIAWVRQKPGKGLEYMGTIYLDDSETIYSPSFQGEVTISADKSINTAYLQWNSLKASDTANYYCARQMDFYFDVWGRGTLVTVSS
VL: SYELMQPPSVSVSPGQTARITCSGDPLPRESAYWYQQKPGQAPVVIIFNDIERPLGIPERFSGSRSGTTVTLTISGAQAEDEADYYCQSADSRKTFVFGTGTKLTVL
B2: ADI-41310 (antibody, V domains shown)
VH: B1 VH with E1Q, E6Q, T28S, E57D
VL: B1 VL with M5T, I46V, E59G, T68A, V70A, S75N, T100A
B3: ADI-41320 (antibody, V domains shown)
VH: B1 VH with E1Q, E6Q, S25F, T28S, F29A, E57D, K74R
VL: B1 VL with S1Q, Y2S, E3V, M5T, I46V, E59A, T100P
B4: ADI-41253 (antibody, V domains shown)
VH: EVQLVQSGPGLVKPSETLSLTCTVSGDSISSSDYSYYWGWIRQPPGKGLEWIASLSYSGKTYSQSSLKSRVIISVDTSKKQFSLKLSSVTAADTAVYYCAVTRCYVCTSEGDSFDMWGQGTMVTVSS
VL: DIVLTQTPGTLSLSPGERATLSCRASQSISGNYLAWYQHKPGQAPRLLIYGASTRATGIPDRFSGSGSGTDFPLTISRLEPEDFAVYYCQQYATSPYTFGQGTKVDIK
B5: ADI-41246 (antibody, V domains shown)
VH: EVQLLESGPGLVKPSETLSLTCIVSGGSISSYNWNWIRQPPGKGLEWIGYIYNSGSTNYNPSLKSRVTISVDTSKNQFSLKLSSVTAADTAVYYCARYFDYGSGGFDYWGQGTLVTVSS
VL: ETTLTQSPGTLSLSPGERATLSCRASQSVTSTYLAWYQQKPGQAPRLLIYGASSRATGIPDRFSGSGSGTDFTLTISRLEPEDFAVYYCQQFDSSLTFGGGTKVEIK
B6: ADI-41258 (antibody, V domains shown)
VH: QVQLVQSGGGLVQRGGSLRLSCAASGFSFRSYAMSWVRQAPGKGLEWVSSISDSGDNTFYADSVKGRFSISRDNSRDTLYLQMNSLRAEDTAVYYCARGGYCSGGNCFPFDYWGQGTLVTVSS
VL: SYELMQLPSVSVSPGQTARITCSGDALPKQYGYWYQQKPGQAPVLVIYKDSERPSGIPERFSGSSSGTTVTLTISGVQAEDEADYYCQSADSGGTYVMFGGGTKLTVL
B7: ADI-41317 (antibody, V domains shown)
VH: EVQLVESGGGLVQPGGSLRLSCEASRFKFSTFWMAWVRQAPGKGLEWVANIKQDGSETYYLDSVKGRFTISRDNAKNSLFLQMKSLRAEDTAVYYCAGLWWGDLENWFDPWGQGTLVTVSS
VL: QSVLTQPPSVSGAPGQRVTISCTGSSSNLGTGFDVHWYRQLPGTAPQLLIYGSTNRPSGVPDRFSGSKYGTSASLAITGLQAEDEADYYCQSYDSNLRAYVFGTVTKVTVL
B8: ADI-41238 (antibody, V domains shown)
VH: EVQLLESGGGLVKPGGSLRLSCAASGFTFRDYYMSWIRQAPGKGLEWVSYISSSSSYTEYADSVKGRFTISRDNAKKSLYLQMNSLRTEDTAVYYCARVITQAGTGTTYYMDVWGKGTTVTVSS
VL: QSVLTQPPSVSGAPGQRVTISCTGSSSNIGTGYDVHWYQQLPGTAPKLLIYANNNRPSGVPDRFSGSKSGTSASLAITGLQAEDEADYYCQSYDSSLSLVFGGGTKLTVL
B9: ADI-41349 (antibody, V domains shown)
VH: EVQLLESGGGLVQPGRSLRLSCTGSGFTFGDYAMNWVRQAPGKGLEWVGLIRSKDYGGTTEFAASLKGRLTISRDDSKSIAYLQMHSLKTEDSAVYYCTRAHLTDYTDINGYQYYFDYWGQGSPVTVSS
VL: DIQMTQSPSSLSASVGDRVTITCQASQDISNFLNWYQQRPGKAPKLLIHDASNLETGVPSRFSGSGSRTEFTFTISSLQPEDIGTYYCQHYDNFPYTFGQGTKVEIK
B10: ADI-41340 (antibody, V domains shown)
VH: QVQLVQSGAEVKTPGSSVKVSCKASGGTFRSYPITWVRQAPGQGLEWMGTVIPVFDTVNYAPKFQGRVSITADESTNTAYMELSSLRSDDSAVYYCARDLGWLRPMTTVTSPHFDYWGQGTLVTVSS
VL: QSVLTQPASVSGSPGQSITISCTGTSSDVGGYDFVSWYQQHPGKAPKLMISEVTDRPSGVSNRFSGSKSGNTASLTISGLQAEDEADYYCTSYTSSRTYVFGTGTKLTVL
B11: ADI-41257 (antibody, V domains shown)
VH: QVQLVESGAEVKKPGSSVKVSCKASEGTFSSYGISWVRQAPGQGPEWMGEINPMFGTAKYAQKFQGRVTITVDESTSTADMELSSLTSEDTAVYYCAREFLGQCSETNCPTPSRHLDYWGQGTLVTVSS
VL: EIVMTQSPSSLSASVGDRVTITCRASRTISSYLNWYQQKPGKAPKLLIYATSNLQSGVPSRFSGSGSGADFTLTISSLQPEDFATYYCQQTYSTPGFGPGTKVDIK
B12: ADI-41294 (antibody, V domains shown)
VH: EVQLLESGGGLVQPGGSLRLSCAASGFTFSAYEMNWVRQAPGKGLEWVSYISSSGSNKHYADSVKGRFTISRDNAKNSLHLHMNSLRAEDTALYYCTRPHQEEWELLPNDAFDLWGQGTMVTVSS
VL: QSALTQPPSASGSPGQSVTISCTGTSTDVGAYTYVSWYQQHPGKAPKLIIYEVYKRPSGVPNRFFGSKSGNTASLTVSGLQAEDEADYYCSSYGGSNNFGLFGGGTKLIVL
B13: ADI-41288 (antibody, V domains shown)
VH: EVQLVESGGGLVQPGGSLRLSCAASGFTFSSYAMSWVRQAAGKGLEWVSAISGSGDDTFYADSVKDRFIISRDSSKRKVYLQMNSLRVEDTAVYYCAKTDIMVTFGGVVVDAYYFDHWGQGTLVTVSS
VL: ETTLTQSPGTLSLSPGERATLSCRASQFVFRSYLAWYQQRPGQPPRLLIYGASSRATGIPDRFSGRGSGTEFTLTISRLEPEDFAMYYCQHYDSSPPGTFGGGTKVEIK
B14: ADI-41268 (antibody, V domains shown)
VH: EVQLVESGGGLVKPGGSLRLSCVASGFGFTSYSMNWVRQAPGKGLEWVSSISASSTYIHYADSVKGRFTISRDNARNSLYLQMISLRADDTAVYYCSRDGPTYGSGVHVWGQGTMVTVSS
VL: QSALIQPVSVSGSPGQSITISCTGTRSDVGGYNYVSWYQQHPGKAPKLMIYEVRNRPSGVSDRFSGSKSGNTASLTISGLQAEDEGDYYCSSYTSSDTLFYVFGSGTKLTVL
B15: ADI-41266 (antibody, V domains shown)
VH: QVQLQQSGPGLVKPSQTLSLTCAISGDSVSSNSAAWNWIRQSPSRGLEWLGRTYYRSKWYNDYAVSVKSRITINPDTSKNQFSLQLNSVTPEDTAVYYCARDLPQVDYFDGASFYFFDFWGQGTLVTVSS
VL: QPVLTQPPSVSVAPGQTASITCGGNIIGNKGVHWYQQKPGRAPVLVVYDDSDRPSGIPERFSGSNSGNTATLTISRVEAADEADYYCQVWDTGSHPVVFGGGTKVTVL
B16: ADI-41254 (antibody, V domains shown)
VH: EVQLVESGGGLVQSGGSLRLSCAASGFTFSSYEMNWVRQAPGKGLEWVSYTTNNGRTIYYADSVKGRFTISRDNAKNSLFLQMNGLRAEDTAVYYCARGIQFSRVDYAMDVWGQGTTVTVSS
VL: SYELTQPPSVSGTPGQRITISCSGSSSNIASNTVNWYQHLPGTAPKLLIYSDNQRPSGVPDRFSGSKSGTSASLAISGLQSEDEADYYCAIWDDSLNASYVFGTGTKLTVL
B17: ADI-41237 (antibody, V domains shown)
VH: EVQLVESGGGLVKPGGSLRLSCAASGFTFSDYYMNWIRQAPGKGLEWVSDISPSSSYTNYADSVKGRFTISRDNAKNSLYLQMNSLRAEDTAMYYCARRGSCTGGVCSFDYWGQGTLVTVSS
VL: QPGLTQPPSVSGAPGQRVTISCTGSSSNIGAGYDVNWYQQLPGTAPKLLIYDNSNRPSGVPDRFSGSKSGTSASLAITGLQAEDEADFYCQSYDSSLSGFVFGTGTKVTVL
B18: ADI-41251 (antibody, V domains shown)
VH: EVQLVESGGGLVKPGGSLRLSCAASGFTFSDYYMTWIRQAPGKGLEWVSNISGGSSYTNYADSVKGRFTISRDNAKNSVYLQMNSLRAEDTAVYYCARVGCSGGVCNFFLDYWGQGTLVTVSS
VL: B17 VL with P2S, G3V, N36H, S54T, F88Y, F100Y
B19: ADI-41343 (antibody, V domains shown)
VH: EVQLVESGGGLVKPGGSLRLSCAASGFTFSSYYMNWVRQAPGKGLEWVSSISGGSSYISYADSVKGRFTISRDNAKNSLYLQMNSLRAEDTAVYYCARVDTPMVRGYYFDYWGQGTLVTVSS
VL: B17 VL with P2S, G3V, Q16R, N36H, Y51F, D52A, F88Y, F100S, T104G
B20: ADI-41245 (antibody, V domains shown)
VH: QVQLVESGGGLVKPGGSLRLSCAASGFSFSAYYMSWIRQAPGKGLEWISNISGGSSYANYADSVEGRFTISRDNAKNSLYLQMNSLRAEDTAVYYCAREFQTYYYMDVWGKGTTVTVSS
VL: B17 VL with G3V, D34E, N36H, D52G, S54N, F88Y, F100S, T104G, V108L
B21: ADI-41322 (antibody, V domains shown)
VH: QVQLVQSGAEVKKPGSSVRVSCKASGGSFSSYATSWVRQAPGQGLEWMGGIIPMYDAVNYAQKFQGRVTITADESTTTAYMELSSLRSEDTAVYYCARSSGYTGTNFFDYWGQGTLVTVSS
VL: DIQMTQSPSSVSASVGDRVTITCRASQDISSWLAWYQQKPGKAPKLLIYTASSLQSGVPSRFSGSGSGTDFTLTISRLQPEDFATYYCQQANSFPRVTFGGGTKVEIK

Changes are numbered by the printed parent chain.

The Kd is the equilibrium constant for the complex coming apart. Lower therefore signals higher affinity.

The target in this experiment is RSV prefusion F (preF, DS-Cav1) (Respiratory syncytial virus). The experiment is described as follows: BLI, IgG on sensor, 100 nM antigen. In general terms: Biolayer interferometry detects binding as a change in optical thickness at a sensor tip.
B1 gave a Kd of 3.35 nM. This lies in the single-digit nanomolar range.

On to B2, for which the Kd turned out to be 3.32 nM. This Kd and that of the molecule before are within 1.5-fold of each other.

Turning to B3, the Kd worked out at 3.2 nM.

In the case of B4, the Kd was found to be 1.11 nM. Against the preceding molecule, the Kd is about 2.9-fold lower.

On to B5, for which the Kd came to 3.08 nM.

For the molecule B6, the Kd was determined as 0.968 nM.

Regarding B7, the Kd amounted to 48.2 nM.

Molecule B8 registered a Kd of 1.03 nM.

As to B9, the Kd worked out at 6.25 nM.

Molecule B10 had a Kd of 3.51 nM.

B11: the Kd is 3.81 nM.

With B12, the Kd amounted to 0.512 nM.

Molecule B13 came in with a Kd of 8.99 nM.

In the case of B14, the Kd came to 0.581 nM.

The molecule B15 displayed a Kd of 4.06 nM. Compared with the last molecule, the Kd is about 7-fold higher.

Molecule B16 returned a Kd of 0.776 nM.

Turning to B17, the Kd is 0.794 nM.

B18 gave a Kd of 0.593 nM.

Consider B19, for which the Kd came to 0.721 nM. The Kd values of the last two molecules are within 1.5-fold of each other.

On to B20, for which the Kd was 0.775 nM.

Consider B21, for which the Kd was determined as 2.98 nM. Against the preceding molecule, the Kd is about 3.8-fold higher.
